Laboratory results published in US20030143208A1, “Oxidative stress-resistant cell lines and methods of use thereof” (priority 2002, published 2003).
“Also recorded” adds a separate entry of the source. Each block holds one molecule with its values, some of them ahead of it.

Assays:
[1] = test system: tyrosine hydroxylase (TH); experiment: Tyrosine hydroxylase activity assay ([3H]H2O release from [3H]tyrosine) of wt- and mutant-TH, with and without peroxynitrite treatment; type: biochemical, rat; details: nitrating and oxidizing concentrations of peroxynitrite, phosphate buffer 0.1 M, DTPA 0.1 mM, pH 7.4, FIG. 3A
Method: (§1) To further confirm the site of nitration in vivo, the tyrosine residues 423, 428, and 432 were individually mutated to Phe. The Tyr423Phe, Tyr428Phe, and Tyr432Phe mutants were created with the QuikChange™ Site-Directed mutagenesis kit from Stratagene as previously described (25). Wild-type rat TH cDNA (GenBank accession no.: NM-012740) was subcloned into the mammalian pcDNA3.1+ expression vector (invitrogen) and used as the DNA template (25 ng) to create the mutants. Complete DNA sequencing data verified the presence of the appropriate mutation in the coding sequences of all recombinant proteins.
(§2) Recombinant wt- and mutant TH were isolated and purified from BL21(DE3)pLysS E. coli expressing the full-length wt-TH, Y423F-TH, Y428F-TH, or Y432F-TH cDNAs. Following isolation enzyme activity was assayed after treatment with peroxynitrite as previously described (25 and 26). Briefly, wt- or mutant-TH were exposed to several concentrations of peroxynitrite under identical conditions, in phosphate buffer 0.1 M containing DTPA 0.1 mM at pH 7.4. The activity of TH was assayed by the release of [^3H]H2O from [^3H]tyrosine in the presence of catalase. The specific activity of the partially purified Tyr423Phe mutant TH was 20% of the wild type TH. It is also shown that the enzyme activity of the wild type, and the Tyr428Phe and Tyr432Phe mutants were inhibited by exposure to nitrating and oxidizing concentrations of peroxynitrite (FIG. 3A). […] Enzymatic activity was assessed using a standard assay and the Lovenberg assay as described in (26) (FIGS. 3B and 3C).

[2] = target: tyrosine hydroxylase (TH) (Rattus norvegicus, UniProt P04177); experiment: Nitration of TH by peroxynitrite in vitro; type: biochemical; details: recombinantly purified TH treated with peroxynitrite in vitro
Chain of tyrosine hydroxylase (TH) (Rattus norvegicus, UniProt P04177) (P04177 whole entry): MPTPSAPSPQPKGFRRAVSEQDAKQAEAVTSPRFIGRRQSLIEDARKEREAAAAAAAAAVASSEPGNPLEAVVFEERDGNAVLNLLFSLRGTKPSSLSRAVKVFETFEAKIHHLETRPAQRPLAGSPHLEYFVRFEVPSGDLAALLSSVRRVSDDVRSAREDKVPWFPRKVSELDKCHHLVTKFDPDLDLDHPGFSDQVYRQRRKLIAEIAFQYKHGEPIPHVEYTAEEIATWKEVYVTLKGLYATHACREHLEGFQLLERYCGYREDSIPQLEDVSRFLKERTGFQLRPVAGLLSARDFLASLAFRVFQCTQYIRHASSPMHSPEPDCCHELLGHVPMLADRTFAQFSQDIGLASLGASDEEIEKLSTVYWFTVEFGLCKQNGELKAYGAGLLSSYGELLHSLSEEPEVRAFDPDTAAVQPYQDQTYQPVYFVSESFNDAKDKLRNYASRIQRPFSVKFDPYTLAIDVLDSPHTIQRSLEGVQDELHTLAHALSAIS
Source text: Cysteine, methionine, tryptophan and tyrosine appear to be the principal amino acids in proteins modified by peroxynitrite in vitro (9-14). To resolve the apparent differences, the reaction of peroxynitrite with recombinantly purified rat TH in vitro was re-examined and no evidence of cysteine oxidation was found. Oxidation of one cysteine residue per molecule of TH was observed only at high peroxynitrite concentrations, and three cysteine residues were oxidized in partially unfolded protein.

[3] = target: T1, tyrosine hydroxylase (TH) (Rattus norvegicus, UniProt P04177, Y423F); experiment: Tyrosine hydroxylase activity assay ([3H]H2O release from [3H]tyrosine) of wt- and mutant-TH, with and without peroxynitrite treatment; type: biochemical
T1 construct: E. coli expressing the full-length wt-TH, Y423F-TH, Y428F-TH, or Y432F-TH cDNAs; made in house; host or cells: BL21(DE3)pLysS E. coli
T1 sequence (P04177 2-498 Y423F): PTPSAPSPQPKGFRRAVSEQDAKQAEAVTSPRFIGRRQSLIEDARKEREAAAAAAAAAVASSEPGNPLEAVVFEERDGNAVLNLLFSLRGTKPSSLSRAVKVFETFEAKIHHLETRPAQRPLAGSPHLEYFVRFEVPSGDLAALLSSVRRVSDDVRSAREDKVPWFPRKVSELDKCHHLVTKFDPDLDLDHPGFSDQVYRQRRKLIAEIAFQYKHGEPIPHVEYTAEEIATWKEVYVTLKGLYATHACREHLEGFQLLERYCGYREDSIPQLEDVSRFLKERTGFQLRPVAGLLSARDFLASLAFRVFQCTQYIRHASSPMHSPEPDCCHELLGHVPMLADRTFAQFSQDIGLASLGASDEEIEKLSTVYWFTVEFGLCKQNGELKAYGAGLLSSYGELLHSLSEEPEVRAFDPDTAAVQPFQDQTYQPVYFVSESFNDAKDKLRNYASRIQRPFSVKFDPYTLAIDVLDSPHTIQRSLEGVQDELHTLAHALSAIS
Method: as §1, §2

[4] = test system: TH in cultured dopaminergic neurons; details: cultured dopaminergic neurons after MPP+ challenge; Pong et al. (22); cited from earlier work

Molecule: Tyr432Phe: rat tyrosine hydroxylase mutant with tyrosine residue 432 mutated to Phe
TH enzymatic activity after exposure to peroxynitrite [1]: inhibited

nitration by peroxynitrite [2]: lack of nitration
resistance to inactivation by different concentrations of peroxynitrite compared to wild type TH, Lovenberg assay ([3]; cell lysates, Lovenberg assay, FIG. 3C): resist inactivation
resistance to inactivation by different concentrations of peroxynitrite compared to wild type TH ([3]; cell lysates, standard assay, FIG. 3B): resist inactivation
Molecule: Tyr423Phe mutant TH: rat tyrosine hydroxylase in which Tyr423 was substituted with Phe
TH enzymatic activity after exposure to peroxynitrite ([1]; listed as Tyr423 Phe mutant): no significant loss of enzymatic activity
TH enzymatic activity after exposure to peroxynitrite ([1]; listed as Tyr423Phe mutant): no loss in TH enzymatic activity; also recorded: unaffected
specific activity relative to wild type TH ([3]; partially purified protein, % of the wild type TH): 20%

Molecule: wild type: recombinant wild-type rat tyrosine hydroxylase (GenBank accession no. NM-012740) [reference compound]
TH enzymatic activity after exposure to peroxynitrite [1]: inhibited

Molecule: Tyr428Phe: rat tyrosine hydroxylase mutant with tyrosine residue 428 mutated to Phe
TH enzymatic activity after exposure to peroxynitrite [1]: inhibited

Molecule: COc1cccc(C=NCCN=Cc2cccc(OC)c2[O-])c1[O-].[Cl-].[Mn+3] [EUK134]
nitration of TH [4]: prevented nitration of TH
